B1: purified CFI (Comptech cat. A138) (protein)
chain: KVTYTSQEDLVEKKCLAKKYTHLSCDKVFCQPWQRCIEGTCVCKLPYQCPKNGTAVCATNRRSFPTYCQQKSLECLHPGTKFLNNGTCTAEGKFSVSLKHGNTDSEGIVEVKLVDQDKTMFICKSSWSMREANVACLDLGFQQGADTQRRFKLSDLSINSTECLHVHCRGLETSLAECTFTKRRTMGYQDFADVVCYTQKADSPMDDFFQCVNGKYISQMKACDGINDCGDQSDELCCKACQGKGFHCKSGVCIPSQYQCNGEVDCITGEDEVGCAGFASVTQEETEILTADMDAERRRIKSLLPKLSCGVKNRMHIRRKRIVGGKRAQLGDLPWQVAIKDASGITCGGIYIGGCWILTAAHCLRASKTHRYQIWTTVVDWIHPDLKRIVIEYVDRIIFHENYNAGTYQNDIALIEMKKDGNKKDCELPRSIPACVPWSPYLFQPNDTCIVSGWGREKDNERVFSLQWGEVKLISNCSKFYGNRFYEKEMECAGTYDGSIDACKGDSGGPLVCMDANNVTYVWGVVSWGENCGKPEFPGVYTKVANYFDWISYHVGRPFISQYNV
B2: CFI expressed in eyes of cynomolgus monkeys from AAV2-GP2031 (vector SEQ ID NO: 33) (protein)
chain: KVTYTSQEDLVEKKCLAKKYTHLSCDKVFCQPWQRCIEGTCVCKLPYQCPKNGTAVCATNRRSFPTYCQQKSLECLHPGTKFLNNGTCTAEGKFSVSLKHGNTDSEGIVEVKLVDQDKTMFICKSSWSMREANVACLDLGFQQGADTQRRFKLSDLSINSTECLHVHCRGLETSLAECTFTKRRTMGYQDFADVVCYTQKADSPMDDFFQCVNGKYISQMKACDGINDCGDQSDELCCKACQGKGFHCKSGVCIPSQYQCNGEVDCITGEDEVGCAGFASVAQEETEILTADMDAERRRIKSLLPKLSCGVKNRMHIRRKRIVGGKRAQLGDLPWQVAIKDASGITCGGIYIGGCWILTAAHCLRASKTHRYQIWTTVVDWIHPDLKRIVIEYVDRIIFHENYNAGTYQNDIALIEMKKDGNKKDCELPRSIPACVPWSPYLFQPNDTCIVSGWGREKDNERVFSLQWGEVKLISNCSKFYGNRFYEKEMECAGTYDGSIDACKGDSGGPLVCMDANNVTYVWGVVSWGENCGKPEFPGVYTKVANYFDWISYHVGRPFISQYNV

Experiments:
[1] = target: C3b (Complement Technology cat. A114), purified human C3b (UniProt P01024)
[2] = target: C3b (Complement Technology cat. A114), purified human C3b, P01024
C3b (Complement Technology cat. A114), purified human C3b, P01024, sequence (P01024 whole entry, looked up): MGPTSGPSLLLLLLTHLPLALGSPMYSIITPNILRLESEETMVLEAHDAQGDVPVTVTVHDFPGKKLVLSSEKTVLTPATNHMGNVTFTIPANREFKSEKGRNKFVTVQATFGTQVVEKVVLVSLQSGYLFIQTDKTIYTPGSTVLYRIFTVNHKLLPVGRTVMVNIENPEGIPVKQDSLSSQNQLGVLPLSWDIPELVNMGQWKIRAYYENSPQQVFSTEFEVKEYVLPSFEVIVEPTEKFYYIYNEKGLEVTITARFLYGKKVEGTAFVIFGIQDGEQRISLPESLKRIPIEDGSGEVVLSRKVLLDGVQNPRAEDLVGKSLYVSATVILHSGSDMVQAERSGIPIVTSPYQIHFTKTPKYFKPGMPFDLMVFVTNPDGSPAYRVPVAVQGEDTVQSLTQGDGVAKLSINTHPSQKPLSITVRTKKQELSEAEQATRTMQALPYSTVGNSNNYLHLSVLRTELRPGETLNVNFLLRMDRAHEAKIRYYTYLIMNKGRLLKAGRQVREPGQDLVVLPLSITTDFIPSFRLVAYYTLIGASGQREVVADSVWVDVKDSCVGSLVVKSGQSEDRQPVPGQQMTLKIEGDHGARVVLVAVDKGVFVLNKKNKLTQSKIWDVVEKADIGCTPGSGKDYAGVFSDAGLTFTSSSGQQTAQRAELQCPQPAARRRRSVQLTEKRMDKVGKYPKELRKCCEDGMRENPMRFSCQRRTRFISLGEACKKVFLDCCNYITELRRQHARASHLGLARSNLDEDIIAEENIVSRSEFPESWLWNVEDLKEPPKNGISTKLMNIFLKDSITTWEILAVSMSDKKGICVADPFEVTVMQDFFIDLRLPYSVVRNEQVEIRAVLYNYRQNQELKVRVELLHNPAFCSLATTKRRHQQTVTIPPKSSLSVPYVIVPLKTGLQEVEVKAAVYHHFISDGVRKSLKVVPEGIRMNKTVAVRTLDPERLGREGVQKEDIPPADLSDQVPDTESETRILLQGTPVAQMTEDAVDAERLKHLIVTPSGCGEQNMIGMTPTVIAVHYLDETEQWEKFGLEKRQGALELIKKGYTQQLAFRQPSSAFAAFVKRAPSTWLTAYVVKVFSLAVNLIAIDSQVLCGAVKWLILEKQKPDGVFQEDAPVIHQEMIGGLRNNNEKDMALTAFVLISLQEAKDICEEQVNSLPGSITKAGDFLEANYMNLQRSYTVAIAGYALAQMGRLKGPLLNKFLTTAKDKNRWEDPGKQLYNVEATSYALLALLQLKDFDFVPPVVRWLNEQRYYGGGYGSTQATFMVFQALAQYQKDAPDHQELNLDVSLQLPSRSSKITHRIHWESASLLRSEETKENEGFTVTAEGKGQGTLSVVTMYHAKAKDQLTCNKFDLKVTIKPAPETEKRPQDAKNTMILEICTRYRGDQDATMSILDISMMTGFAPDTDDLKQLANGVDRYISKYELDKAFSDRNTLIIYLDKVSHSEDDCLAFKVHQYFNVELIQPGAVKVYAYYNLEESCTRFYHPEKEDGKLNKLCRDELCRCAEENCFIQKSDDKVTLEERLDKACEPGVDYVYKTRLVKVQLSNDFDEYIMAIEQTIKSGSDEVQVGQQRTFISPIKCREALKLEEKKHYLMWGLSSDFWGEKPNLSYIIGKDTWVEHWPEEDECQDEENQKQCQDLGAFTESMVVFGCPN

Molecule	fluorescence cofactor assay: change in RFUs of ANS-labeled C3b over time, with cofactor CFH, MCP or CR1 [1]	also measured
A240G CFI protein (Complement Factor I mutant variant)	certain CFI mutations (G119R, A240G, and P553S) were associated with greatly reduced CFI protein function	–
A300T CFI protein (Complement Factor I mutant variant)	the A300T mutation appeared to have relatively little impact on CFI function	–
G119R CFI protein (Complement Factor I mutant variant)	certain CFI mutations (G119R, A240G, and P553S) were associated with greatly reduced CFI protein function	–
P553S CFI protein (Complement Factor I mutant variant)	certain CFI mutations (G119R, A240G, and P553S) were associated with greatly reduced CFI protein function	–
B1	–	slope of the co-factor assay (fluorescence of C3b/ANS with CFH, kinetic mode) [2]: the slope of the CFI control sample is -0.75±0.02
B2	–	fluorescence cofactor assay with CFH: reduction in fluorescence at 472 nm of C3b/ANS mixed with vitreous humor [2]: CFI expressed in eyes of cynomolgus monkeys was capable of cleaving C3b in a dose-dependent manner
